In general, EC50 refers to the midpoint of the concentration-response curve.

Results on five molecules are retold here after patent US11365219B2, “Cyclic peptides as protein targeting agents” (California Institute of Technology, priority 2013, dated 2022).

The target in one assay is T1, full-length Akt2 protein (Homo sapiens, UniProt P31751).
T1 construct: compared against the corresponding linear peptide for capturing full-length Akt2 protein
Kind of assay: affinity estimation from immunoassays capturing full-length Akt2 protein (FIG. 6D). Format: binding. The settings on record: cyclic vs linear peptide. The source says:
(§1) The structure of an isolated hit, with sequence of variable region YYTYT (SEQ ID NO:4) is illustrated in FIG. 6A. […] FIG. 6D is an affinity estimation from immunoassays in which the Cy(YYTYT (SEQ ID NO:4)-Tz4) peptide is compared against the corresponding linear peptide for capturing full-length Akt2 protein. […] Finally, FIG. 6E presents selectivity assay data showing the relative binding of the cyclic peptide to the Akt2 protein, relative to the closely related Akt1 and Akt3 proteins. The sequence of the C-terminal regions for all three proteins is given.

The target of a further assay is Akt2 (Homo sapiens, UniProt P31751). Kind of assay: single point immunoassay, cyclic versus linear peptide (FIG. 6C). Format: binding.
Chain of Akt2 (P31751 whole entry, the tested form may be a part): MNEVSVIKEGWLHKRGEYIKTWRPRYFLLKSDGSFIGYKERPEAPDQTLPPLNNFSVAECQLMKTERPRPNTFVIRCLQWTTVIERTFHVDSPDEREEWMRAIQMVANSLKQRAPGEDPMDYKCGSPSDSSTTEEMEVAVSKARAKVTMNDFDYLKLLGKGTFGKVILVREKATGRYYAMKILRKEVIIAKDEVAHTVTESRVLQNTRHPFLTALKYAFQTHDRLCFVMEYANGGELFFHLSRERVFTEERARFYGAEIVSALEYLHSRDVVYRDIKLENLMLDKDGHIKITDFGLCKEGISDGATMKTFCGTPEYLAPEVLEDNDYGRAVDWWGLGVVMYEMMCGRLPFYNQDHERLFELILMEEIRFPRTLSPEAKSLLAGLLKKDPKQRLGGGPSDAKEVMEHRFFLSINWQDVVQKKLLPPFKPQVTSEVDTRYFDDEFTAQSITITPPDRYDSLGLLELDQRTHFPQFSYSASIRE
Source text: The peptide libraries of Example 2 were screened against the C-terminal epitope of Akt2 that contains residues 450-481 as illustrated in FIG. 5. Those residues include the phosphorylation site […] which, for the screen exemplified in this example, was phosphorylated. The peptide libraries were first screened against synthetic peptide that represented a scrambled epitope of Akt2 450-481 to eliminate those library elements that bind to closely related epitopes. The remaining library elements were screened against a synthetically prepared polypeptide fragment representing the phosphorylated Akt2 C-terminus. The libraries A, B, C (from example 2) were all screened. Library C yielded hits, and the sequence of those hits (determined by Edman degradation) is shown in Table 3 (Tz4 indicates 4-carbon linker to triazole).
as §1

For assay [1], the target named is T2, PfLDH (Plasmodium falciparum, UniProt Q27743, A73S/D96L). Kind of assay: ELISA, biotinylated ligand on streptavidin plate, GST-PfLDH, antiGST-HRP detection. It is filed as binding. As to conditions: 5 μM biotinylated ligand immobilized. As to the method: (§2) Hit sequence No. 6 (HWSAN (SEQ ID NO:11)) was identified for further testing against the whole PfLDH or PvLDH proteins, results of which are presented in FIG. 10. […] A RCM cyclized version of the HWSAN (SEQ ID NO:11) peptide was synthesized. 5 μM of the biotinylated ligands were immobilized on a streptavidin plate, blocked with 5% milk and then treated with GST-PfLDH or GST-PvLDH proteins overnight. The binding was detected using antiGST-HRP antibody.
To look at the selectivity of the ligand, a single point ELISA was done with the biotinylated ligand immobilized on the streptavidin plate and treating with 10 nM PfLDH or PvLDH protein in varying concentrations of human serum.
(ELISA stands for enzyme-linked immunosorbent assay.)

Assay [2] has as its system PvLDH. Kind of assay: ELISA, biotinylated ligand on streptavidin plate, GST-PvLDH, antiGST-HRP detection. It is filed as binding. The settings on record: whole protein; 5 μM biotinylated ligand immobilized; FIG. 10. As to the method:
as §2

For a further assay, the target named is PfHRP2 protein (Plasmodium falciparum, UniProt P05227). Kind of assay: biochemical. As to the method: For the selectivity assay, the effect of binding of the ligand to the PfHRP2 protein with varying serum concentrations was determined.
Assay [3] concerns the target T2, PfLDH. Kind of assay: sandwich ELISA, NeutrAvidin-coated plates loaded with biotinylated ligand, pfLDH. It is filed as binding. As to conditions: varying concentrations of pLDH in TBS. As to the method:
(§3) The structure of the resulting binary ligand hevwh-YLGHK based on the hit sequence No. 1 and representative data is presented in FIG. 11. […] Similar ELISA was performed with pLDHs and human LDH (hLDH) in the presence of 1 and 5% (v/v) human serum to confirm the selectivity and high activity of the binary ligand in complex mixtures.

The test system of assay [4] is PvLDH. Kind of assay: sandwich ELISA, NeutrAvidin-coated plates loaded with biotinylated ligand, pvLDH. Format: binding. As to conditions: varying concentrations of pLDH in TBS. As to the method: as §3

Numbered stars: 1 amine (or outer) side, 2 acyl side, 3 side chain; on linkers, the order of the positions; unused ones are H or OH. Bridge positions count the residues as written; N and C are the ends. Square brackets hold non-standard residues; d marks the D form. Ends that are not written are not given here. Peptide text beside a SMILES is read from it. * marks the point of attachment. Biotin = O=C1N[C@H]2[C@H](CS[C@H]2CCCCC(=O)*)N1; X1 = O=C(CCCOCCOCCOCCOCCOCCN[*:1])[*:2]; Ethylenediamine = C(CN[*:2])N[*:1]; R8 = C=CCCCCCC[C@@](C)(N)C(=O)O; S5 = C=CCCC[C@](C)(N)C(=O)O; Pra = C#CC[C@H](N)C(=O)O

T1 sequence (P31751 whole entry): as the sequence (P31751 whole entry, the tested form may be a part) above

On to “Cy(YYTYT (SEQ ID NO:4)-Tz4) (triazole (positions not given here); also: Tz4: 4-carbon linker to triazole)”, for which the “affinity relative to the corresponding linear peptide” value in the assay with full-length Akt2 protein is recorded as 30 fold. The “binding relative to the linear variant” value with Akt2 is on record as “improved binding”.

For the molecule “HWSAN ([Pra]HWSAN; triazole (positions not given here); also: triazole cyclisation, partner residue not given here) [HWSAN (SEQ ID NO:11)]”, in the assay with PfLDH [1] (GST-PfLDH or GST-PvLDH overnight), the “selectivity between the PfLDH and PvLDH, triazole-cyclized versus RCM cyclic peptide” value is “higher selectivity”. In addition, the “affinity for pfLDH” value in the assay with PfLDH [1] (whole protein, FIG. 10) is recorded as “high affinity”. Moreover, in the assay on PvLDH [2], the “affinity for pvLDH” value is on record as “high affinity”. At PfHRP2 protein, `CC(C)C[C@@H]1NC(=O)[C@H](Cc2c[nH]c3ccccc23)NC(=O)[C@H](CCC(=O)O)NC(=O)[C@H]([C@@H](C)O)NC(=O)[C@H](CO)NC(=O)CNC(=O)[C@](C)(N)CCCCCC/C=C\CCC[C@@](C)(C(=O)NCCOCCOCCOCCOCCOCCCC(=O)NCCNC(=O)CCCC[C@@H]2SC[C@@H]3NC(=O)N[C@@H]32)NC1=O` [biotinylated peptide] (H-[R8]GSTEWL[S5][X1]-{Ethylenediamine-Biotin}; staple (Z) 1-8) had an EC50 of 0.02 µM. Regarding “RCM cyclic peptide: RCM cyclized version of the HWSAN peptide, biotinylated ligand (staple (positions not given here); also: RCM cyclized, olefinic residues not placed, biotinylated, site not given here)”, the “affinity for PfLDH, RCM cyclic versus triazole-cyclized peptide” value with PfLDH [1] (GST-PfLDH overnight) is on record as “higher affinity”. In the case of hevwh-YLGHK, at PfLDH [3], the “affinity for pfLDH” value is recorded as “high affinity”. Besides, the “affinity for pvLDH” value in the assay on PvLDH [4] was “high affinity”.
